Measured values: patent US20170037111A1, “Novel peptides and combination of peptides for use in immunotherapy against ovarian cancer and other cancers” (immatics biotechnologies GmbH, priority 2015, published 2017)

target: HLA-A*02:01 (Homo sapiens, UniProt P04439, D140Y/D185E/D98H/E176V/E277Q/G131W/G231S/I119V/I121R/I166T/I218V/L300P/L318F/N151K/N90K/P208A/P217A/Q86G/Q94H/R138H/R169H/T345S); experiment: MHC binding assay (UV-ligand exchange, β2m ELISA, peptide exchange yield); conditions: MHC class I binding score; binding to HLA-A*02:01 ranged by peptide exchange yield (UV-ligand exchange, β2m ELISA)
Procedure, shortened: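 Peptide–HLA-A*02:01 complexes were formed by UV-mediated exchange of a UV-cleavable ligand for the test peptide. Exchange yield was measured by capturing complexes on streptavidin, detecting with HRP anti-β2m antibody (1 h, 37°C) and reading TMB absorbance at 450 nm.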

| Substance | Peptide exchange |
| --- | --- |
| 273 (NLFQSVREV; listed as Homo sapiens) [compound 273] | ″++″ (≧20% = ++) |
| 106 (LLYDAVHIVSV; listed as Homo sapiens) [compound 106] | ″+++″ (≧50% = +++) |
| 161 (ALLEGVNTV; listed as Homo sapiens) [compound 161] | ″+++″ (≧50% = +++) |
| 189 (ALQRKLPYV; listed as Homo sapiens) [compound 189] | ″+++″ (≧50% = +++) |
| 246 (LLWEVVSQL; listed as Homo sapiens) [compound 246] | ″+++″ (≧50% = +++) |
| 33 (VLLSLLEKV; listed as Homo sapiens) [compound 33] | ″++″ (≧20% = ++) |
| 39 (SVAPNLPAV; listed as Homo sapiens) [compound 39] | ″+++″ (≧50% = +++) |
| 267 (ALQDFLLSV; listed as Homo sapiens) [compound 267] | ″+++″ (≧50% = +++) |
| 202 (ALLDQQGSRWTL; listed as Homo sapiens) [compound 202] | ″+++″ (≧50% = +++) |
| 205 (SLYPGTETMGL; listed as Homo sapiens) [compound 205] | ″+++″ (≧50% = +++) |
| 59 (IMEDIILTL; listed as Homo sapiens) [compound 59] | ″+++″ (≧50% = +++) |
| 136 (YLADPSNLFVV; listed as Homo sapiens) [compound 136] | ″+++″ (≧50% = +++) |
| 211 (LLWPGAALL; listed as Homo sapiens) [compound 211] | ″++″ (≧20% = ++) |
| 67 (TLLAEALVTV; listed as Homo sapiens) [compound 67] | ″+++″ (≧50% = +++) |
| 131 (FVPPVTVFPSL; listed as Homo sapiens) [compound 131] | ″++″ (≧20% = ++) |
| 23 (VLLDDIFAQL; listed as Homo sapiens) [compound 23] | ″+++″ (≧50% = +++) |
| 26 (ALLELAEEL; listed as Homo sapiens) [compound 26] | ″+++″ (≧50% = +++) |
| 177 (YLLPEEYTSTL; listed as Homo sapiens) [compound 177] | ″++++″ (≧75% = ++++) |

| Substance | Peptide exchange |
| --- | --- |
| 96 (YIFTDNPAAV; listed as Homo sapiens) [compound 96] | ″+++″ (≧50% = +++) |
| 171 (LLLPLQILL; listed as Homo sapiens) [compound 171] | ″+++″ (≧50% = +++) |
| 4 (GIMEHITKI; listed as Homo sapiens) [compound 4] | ″++++″ (≧75% = ++++) |
| 178 (ALTEIAFVV; listed as Homo sapiens) [compound 178] | ″++++″ (≧75% = ++++) |
| 54 (SLLEQGKEPWMV; listed as Homo sapiens) [compound 54] | ″+++″ (≧50% = +++) |
| 29 (KMLGIPISNILMV; listed as Homo sapiens) [compound 29] | ″+++″ (≧50% = +++) |
| 89 (YILPTETIYV; listed as Homo sapiens) [compound 89] | ″++++″ (≧75% = ++++) |
| 204 (KIAENVEEV; listed as Homo sapiens) [compound 204] | ″++″ (≧20% = ++) |
| 97 (SLINGSFLV; listed as Homo sapiens) [compound 97] | ″+++″ (≧50% = +++) |
| 182 (MLLEAPGIFL; listed as Homo sapiens) [compound 182] | ″+++″ (≧50% = +++) |
| 155 (RVANLHFPSV; listed as Homo sapiens) [compound 155] | ″+++″ (≧50% = +++) |
| 218 (SALEELVNV; listed as Homo sapiens) [compound 218] | ″++″ (≧20% = ++) |
| 226 (MLYVVPIYL; listed as Homo sapiens) [compound 226] | ″++″ (≧20% = ++) |
| 85 (KMSELRVTL; listed as Homo sapiens) [compound 85] | ″+++″ (≧50% = +++) |
| 116 (YHIDEEVGF; listed as Homo sapiens) [compound 116] | ″+″ (≧10% = +) |
| 164 (ALLPQPKNLTV; listed as Homo sapiens) [compound 164] | ″+++″ (≧50% = +++) |
| 68 (SLMELPRGLFL; listed as Homo sapiens) [compound 68] | ″++++″ (≧75% = ++++) |

The next lines start with the values.

| Peptide exchange | Substance |
| --- | --- |
| ″++″ (≧20% = ++) | 382 (ALQNYIKEA; listed as Homo sapiens) [compound 382] |
| ″+++″ (≧50% = +++) | 507 (KLIDDQDISISL; listed as Homo sapiens) [compound 507] |
| ″++″ (≧20% = ++) | 428 (KLGHTDILVGV; listed as Homo sapiens) [compound 428] |
| ″+++″ (≧50% = +++) | 441 (ALLENPKMEL; listed as Homo sapiens) [compound 441] |
| ″++″ (≧20% = ++) | 458 (SLIDKLYNI; listed as Homo sapiens) [compound 458] |
| ″+++″ (≧50% = +++) | 335 (YSLSSVVTV; listed as Homo sapiens) [compound 335] |
| ″+++″ (≧50% = +++) | 545 (LLADLLHNV; listed as Homo sapiens) [compound 545] |
| ″+++″ (≧50% = +++) | 383 (ALLELENSVTL; listed as Homo sapiens) [compound 383] |
| ″++″ (≧20% = ++) | 491 (GLNDRSDAV; listed as Homo sapiens) [compound 491] |
| ″+++″ (≧50% = +++) | 391 (YVYPQRLNFV; listed as Homo sapiens) [compound 391] |
| ″+++″ (≧50% = +++) | 306 (ALVNVQIPL; listed as Homo sapiens) [compound 306] |
| ″++″ (≧20% = ++) | 393 (GLLDTQTSQVLTA; listed as Homo sapiens) [compound 393] |
| ″+++″ (≧50% = +++) | 304 (MTLGQIYYL; listed as Homo sapiens) [compound 304] |
| ″+++″ (≧50% = +++) | 610 (LLAPTPYIIGV; listed as Homo sapiens) [compound 610] |
| ″++++″ (≧75% = ++++) | 602 (YLLEQIKLIEV; listed as Homo sapiens) [compound 602] |
| ″+++″ (≧50% = +++) | 334 (TLTKVLVAL; listed as Homo sapiens) [compound 334] |
| ″++++″ (≧75% = ++++) | 358 (ALDEYTSEL; listed as Homo sapiens) [compound 358] |
| ″+++″ (≧50% = +++) | 604 (SILDRDDIFV; listed as Homo sapiens) [compound 604] |
| ″+++″ (≧50% = +++) | 316 (ILLERLWYV; listed as Homo sapiens) [compound 316] |
| ″+++″ (≧50% = +++) | 315 (YLQDVVEQA; listed as Homo sapiens) [compound 315] |
| ″+++″ (≧50% = +++) | 571 (LLLTTIPQI; listed as Homo sapiens) [compound 571] |
| ″++++″ (≧75% = ++++) | 349 (SLTEYLQNV; listed as Homo sapiens) [compound 349] |

| Peptide exchange | Substance |
| --- | --- |
| ″+++″ (≧50% = +++) | 543 (GLLPTPITQQASL; listed as Homo sapiens) [compound 543] |
| ″++″ (≧20% = ++) | 516 (AVGPASILKEV; listed as Homo sapiens) [compound 516] |
| ″+++″ (≧50% = +++) | 288 (NLINEINGV; listed as Homo sapiens) [compound 288] |
| ″+++″ (≧50% = +++) | 356 (KLLGKLPEL; listed as Homo sapiens) [compound 356] |
| ″+++″ (≧50% = +++) | 390 (ALFMKQIYL; listed as Homo sapiens) [compound 390] |
| ″++″ (≧20% = ++) | 380 (TLIEDEIATI; listed as Homo sapiens) [compound 380] |
| ″+++″ (≧50% = +++) | 477 (ALLPASGQIAL; listed as Homo sapiens) [compound 477] |
| ″+++″ (≧50% = +++) | 287 (FLNEFFLNV; listed as Homo sapiens) [compound 287] |
| ″+++″ (≧50% = +++) | 282 (LLADVVPTT; listed as Homo sapiens) [compound 282] |
| ″++″ (≧20% = ++) | 412 (YLDDLNEGVYI; listed as Homo sapiens) [compound 412] |
| ″++++″ (≧75% = ++++) | 568 (TLYDIAHTPGV; listed as Homo sapiens) [compound 568] |
| ″++″ (≧20% = ++) | 434 (KVSNSGITRV; listed as Homo sapiens) [compound 434] |
| ″++″ (≧20% = ++) | 385 (SLLEQGLVEA; listed as Homo sapiens) [compound 385] |
| ″++″ (≧20% = ++) | 408 (VLDDSIYLV; listed as Homo sapiens) [compound 408] |
| ″+++″ (≧50% = +++) | 365 (YVIDQGETDVYV; listed as Homo sapiens) [compound 365] |
| ″+++″ (≧50% = +++) | 546 (VMIAGKVAVV; listed as Homo sapiens) [compound 546] |
| ″+++″ (≧50% = +++) | 359 (YLLPESVDL; listed as Homo sapiens) [compound 359] |
| ″+++″ (≧50% = +++) | 449 (KLAEGLDIQL; listed as Homo sapiens) [compound 449] |
| ″++″ (≧20% = ++) | 580 (LLMENAERV; listed as Homo sapiens) [compound 580] |
| ″+++″ (≧50% = +++) | 326 (FLPEALDFV; listed as Homo sapiens) [compound 326] |
| ″++″ (≧20% = ++) | 374 (FLLQQHLISA; listed as Homo sapiens) [compound 374] |
